Test results: patent US20250387450A1 (AIKIUM, published 2025)

Columns and labels:
[1] = molecular target: T1, KAAG1 disordered region peptide, PGAAAAHLPRWPPPQLAASRREA (biotin label); assay: modified sandwich ELISA, grade by the table's key
T1 construct: also called KAAG1 Peptide
T1 peptide: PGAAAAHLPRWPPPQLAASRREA
Description: (§1) Binder proteins were coated on the surface of a high binding capacity 96 well plate by incubating 100 μL of protein at 5 μg/mL in a coating solution (10 mM Tris pH 8.8, 50 mM NaCl), overnight at 4 C. The next morning, the coating solution was aspirated out and wells were washed once with 300 μL ELISA wash buffer (1×PBS, 0.05% Tween-20) and solution was aspirated out. The wells were blocked with 200 μL of a blocking buffer (1×PBS, 0.05% Tween-20, 3% BSA) at room temperature for 1 hour. After one hour, the blocking solution was aspirated out and 100 μL of biotinylated polypeptide in a binding buffer (1×PBS, 0.05% Tween-20, 0.5% BSA) at various concentrations was added to the appropriate well and incubated for 20 minutes. Peptide solution was aspirated out after 20 minutes and wells were washed 5 times with 300 μL of ELISA wash buffer. To detect the biotinylated peptide, 100 μL of streptavidin-HRP (50 ng/ml) was added to each well and incubated for 1 hour. The wells were subsequently washed 5 times with 300 μL of ELISA wash buffer. 100 μL of QuantaBlu Fluorogenic Peroxidase substrate solution was added to each well, incubated for 30 minutes and reaction stopped by adding 100 μL of stop solution. Fluorescent signal from each well was measured using a Biotek Cytation5 plate reader by exciting the fluorophore at […] and measuring emission at 420 nm. Fluorescent signals were plotted as a function of polypeptide concentration.

[2] = molecular target: T2, CYSLTR2 N-terminal disordered region peptide, MERKFMSLQPSISVSEMEPNGTFSNNNSRNCTIENFKREFFP (biotin label); assay: modified sandwich ELISA, grade by the table's key
T2 construct: also called CysLT2; CysLT2r
T2 peptide: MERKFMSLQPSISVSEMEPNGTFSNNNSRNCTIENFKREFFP
Description: as §1

[3] = molecular target: T3, Urotensin-2 receptor N-terminal peptide, MALTPESPSSFPGLAATGSSVPEPPGGPNATLNSSWASPTEPSSLEDLVATGTI (biotin label); assay: modified sandwich ELISA, grade by the table's key
T3 construct: also called Urotensin IIR; GPCR2 (Urotensin II)
T3 peptide: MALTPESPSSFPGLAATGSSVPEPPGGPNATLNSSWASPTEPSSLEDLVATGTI
Description: as §1

[4] = molecular target: T4, TNFRSF13B disordered region peptide, LPPELRRQRSGEVENNSDNSGRYQ (biotin label); assay: modified sandwich ELISA, grade by the table's key
T4 construct: also called TNFRSF13B Peptide
T4 peptide: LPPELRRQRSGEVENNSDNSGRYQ
Description: as §1

[5] = molecular target: T5, CD74 disordered region peptide (CLIP), PPKPVSKMRMATPLLMQALPMGALP (biotin label); assay: modified sandwich ELISA, fluorescence grade by the table's key
T5 construct: also called CD74 Peptide
T5 peptide: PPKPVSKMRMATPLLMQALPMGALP
Description: as §1

fluorescent signal [5]: > 400000 fluorescentsignal
B1: engineered scaffold protein S084 (designed binder)
chain: IKEEHVIQQSEYYTNPDQSGEFQFDFDGDEIFHVDMAKKETVWRLEEFGRFASFEAQGALANIAVDKANLEIMTKRSNYTGDTRPRFNWQLKFECHFFNGTERVRLLERCNYNQEESVRFDSDVGEYRAVTELGRPDAEYWNSQKDLLEQRRAAVDTYCRHNYGVGESFTVQRRGGSHHHHHHLE
binding result [1]: no binding (tested: <5000 (fluorescence, key)) | binding result [2]: no binding (tested: <5000 (fluorescence, key)) | binding result [3]: no binding (tested: <5000 (fluorescence, key)) | binding result [4]: no binding (tested: <5000 (fluorescence, key))
